Measured values taken from patent US20240293460A1 (published 2024).

Biological target: soluble DKK1 peptide P20/HLA-A2 complex (human;, UniProt P61769 21-119; O94907 20-29)
Assay: SPR

B1: DKK1-A2 mAb HMB1 (antibody, V domains shown)
VH: QVQLKESGPGLVAPSQSLSITCTVSGFSLTDFAVTWIRQPPGKGLEWLGVIWGGGSTYYNSALKSRLSISKDNSKSQVFLKMNSLQTDDTAMYYCAKTTPIYFDYDHALDYWGQGTSVTVSS
VL: DVVVTQTPLSLPVSFGDQVSISCRSSQSLTNSYGNTYLSWYLHKPGQSPQLLIYGISNRFSGVPDRFSGSGSGTDFTLKISTIKPEDLGMYYCLQGTHQPYTFGGGTKLEIK
Kd: 17.6 nM

B2: DKK1-A2 mAb HMB7 (antibody, V domains shown)
VH: EVQLQQSGAELVKPGASVKLSCTASGFNIKDTYMHWVKQRPEQGLEWIGRIDPANGDTKYDPKFQGKATITADTSSNTAYLHLSSLTSEDTAVYYCARGRYYYGTSSFDYWGQGTTLTVSS
VL: DIVMTQSHKFMSTSVGDWVSITCKAWQDVDTAVAWYQQKPGQSPKLLIYWASTRHTGVPDRFTGSGSGTDFTLTISNVQSEDLADYFCQQYSSYPYTFGGGTKLEIK
Kd: 2780 nM
